Measurements reported in PMC3961380, “Activation of 2′ 5′-Oligoadenylate Synthetase by Stem Loops at the 5′-End of the West Nile Virus Genome”.

T1: OAS1 p42 isoform (transcript variant 2), wild type (human), P00973-2
T1 sequence: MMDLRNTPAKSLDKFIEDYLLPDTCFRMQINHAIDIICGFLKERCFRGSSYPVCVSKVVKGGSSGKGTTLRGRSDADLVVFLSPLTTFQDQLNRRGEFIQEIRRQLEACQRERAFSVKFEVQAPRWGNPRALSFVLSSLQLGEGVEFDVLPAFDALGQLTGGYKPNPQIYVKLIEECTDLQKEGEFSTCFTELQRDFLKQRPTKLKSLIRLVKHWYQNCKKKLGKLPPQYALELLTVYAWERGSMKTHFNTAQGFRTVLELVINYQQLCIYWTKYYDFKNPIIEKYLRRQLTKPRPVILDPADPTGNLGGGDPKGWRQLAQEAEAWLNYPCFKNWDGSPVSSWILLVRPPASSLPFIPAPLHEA

T2: OAS1 p42 isoform (transcript variant 2), wild type (human, UniProt P00973-2 1-364)
T2 sequence: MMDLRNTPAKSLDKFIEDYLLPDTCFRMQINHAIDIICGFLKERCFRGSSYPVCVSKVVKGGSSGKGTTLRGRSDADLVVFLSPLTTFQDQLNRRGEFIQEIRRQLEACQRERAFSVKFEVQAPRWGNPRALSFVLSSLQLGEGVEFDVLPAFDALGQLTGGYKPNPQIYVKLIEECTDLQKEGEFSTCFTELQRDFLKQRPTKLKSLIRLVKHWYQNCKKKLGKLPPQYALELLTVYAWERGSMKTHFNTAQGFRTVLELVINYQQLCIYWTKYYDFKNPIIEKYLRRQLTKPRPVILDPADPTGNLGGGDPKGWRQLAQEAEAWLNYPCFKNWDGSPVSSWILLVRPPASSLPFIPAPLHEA


How the values were obtained:
[1] = test system: T1, OAS1 p42 isoform (transcript variant 2), wild type (human), P00973-2; assay: OAS1 activation kinetics (Kapp, PPi assay); conditions: pH 7.5, 10 min at room temperature (~20 C)
OAS1 S162G (human) = assay: OAS1 activation kinetics (Kapp, PPi assay); conditions: pH 7.5, 10 min at room temperature (~20 C)
[2] = target: T2, OAS1 p42 isoform (transcript variant …); assay: OAS1 activation kinetics (Kapp NA); 400 nM OAS1; no detectable affinity; […], pH 7.5, 10 min at room temperature (~20 C); […]; conditions: protein: recombinant; tags: none after TEV cleavage of N-terminal GNSHT tag (GB1, NusA, Streptavidin, 6xHis); label: none (SYBR Gold stain); stem loop
[3] = target: T2, OAS1 p42 isoform (transcript variant …); assay: OAS1 activation kinetics (Kapp, PPi assay); 400 nM OAS1; […], pH 7.5, 10 min at room temperature (~20 C); […]; conditions: protein: recombinant; tags: none after TEV cleavage of N-terminal GNSHT tag (GB1, NusA, Streptavidin, 6xHis); label: none (SYBR Gold stain); two stem loops

Row | Molecule | K half [1] [nM] | binding result [2] | other results
1 | WNV SLI/II | 528 | – | –
2 | WNV SLI/II/III | 1450 | – | K half (OAS1 S162G (human)): 1490 nM
3 | WNV SLI | 5830 | – | –
4 | AGGAGGGCCCGGCAAGAGCCGGGCUGUCAAUAUGCU (structured_RNA) [WNV SLIII] | – | no binding | –
5 | GCUGUUUCUUAGCACGAAGAUCUCGAUGUCUAAGAAACC (structured_RNA) [WNV SLII] | – | no binding | –
6 | WNV SLII/III (structured_RNA) RNA: GCUGUUUCUUAGCACGAAGAUCUCGAUGUCUAAGAAACCAGGAGGGCCCGGCAAGAGCCGGGCUGUCAAUAUGCU | – | – | apparent K (half saturation) [3]: 5.78 ± 0.452 µM
